B1: PpACS1 promoter probe (dsDNA)
DNA 1: TACAACACGCAAGCAATTAC
DNA 2: GTAATTGCTTGCGTGTTGTA
B2: PpACO1 promoter probe (dsDNA)
DNA 1: ACAGTAATTTGCTTGCTTTC
DNA 2: GAAAGCAAGCAAATTACTGT

Target: PpBL (Prunus persica, UniProt M5WDM1 1-437)
Test: EMSA; 5x, 10x, 50x competitor probe; EMSA: room temperature 30 min, 6% native PAGE in 0.5x TBE at 4 C, 60 V 1 h, binding buffer not stated; pull-down: 1 ug DNA-bead complex with 300 ul nuclear proteins, 20 min room temperature
Conditions: protein: recombinant; (pGEX-6p-1 vector); label: biotin

PpBL, sequence (M5WDM1 entry or part of it): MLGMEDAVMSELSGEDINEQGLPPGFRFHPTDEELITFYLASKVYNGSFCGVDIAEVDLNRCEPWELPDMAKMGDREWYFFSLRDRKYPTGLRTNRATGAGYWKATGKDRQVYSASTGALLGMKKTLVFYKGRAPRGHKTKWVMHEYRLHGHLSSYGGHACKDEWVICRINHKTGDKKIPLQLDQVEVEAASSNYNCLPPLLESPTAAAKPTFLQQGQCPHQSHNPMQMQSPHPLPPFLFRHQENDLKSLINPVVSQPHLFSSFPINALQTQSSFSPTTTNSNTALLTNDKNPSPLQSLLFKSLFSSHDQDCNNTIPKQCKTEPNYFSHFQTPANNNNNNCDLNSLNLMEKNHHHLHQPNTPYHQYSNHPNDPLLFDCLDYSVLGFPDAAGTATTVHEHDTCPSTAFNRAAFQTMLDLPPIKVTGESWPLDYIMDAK

Binder	binding result
B1	binds
B2	binds
